Residue numbers refer to the chain shown, from its start.
B1: BGA1833/IgG1 (antibody)
heavy: not shown
light: QIQLTQSPSSLSASVGDRVTITCKASQDVSTAVAWYQQKPGKAPKLLIYAASYRHIGVPSRFSGSGSGTDFTLTISSLQPEDFATYYCQQHYSNPFTFGGGTKVEIKRTVAAPSVFIFPPSDEQLKSGTASVVCLLNNFYPREAKVQWKVDNALQSGNSQESVTEQDSKDSTYSLSSTLTLSKADYEKHKVYACEVTHQGLSSPVTKSFNRGEC
notes: BGA1833 with wild-type human IgG1 heavy chain; also called BGA1833 with wt IgG1
B2: mu183 (antibody, V domains shown)
VH: QVQLQQPGSVLVRPGASVKLSCKASGYTFTSSWMHWAKQRPGQGLEWIGEIHPNRDNTNYNEKFKGKATLTVDTSSSTAYVDLSSLTSEDSAVYYCARSYYDYGGAYFDSWGQGTTLTVSS
VL: QIVLTQSHKFMSTSVGDRVSITCKASQDVSTAVAWYQQKPGQSPKLLIYAASYRHIGVPDRFTGSGSGTDFTFTISSVQAEDLAVYYCQQHYSNPFTFGSGTKLEIK
notes: Murine hybridoma antibody, purified on Protein A; also called murine anti-NKp30 antibody mu183
B3: ch183 (antibody, V domains shown)
VH: B2 VH
VL: B2 VL
notes: not shown: human immunoglobulin kappa constant region
B4: BGA1832 (antibody, human IgG1, kappa, V domains shown)
VH: QVQLVQSGAEVKKPGASVKVSCKASGYTFTSSYMHWVRQAPGQGLEWMGEIHPNRDNTNYNEKFKGRVTMTVDTSTSTVYMELSSLRSEDTAVYYCARSYYDYGGAYFDAWGQGTLVTVSS
VL: DIQLTQSPSSLSASVGDRVTITCKASQDVSTAVAWYQQKPGKAPKLLIYAASYRHIGVPSRFSGSGSGTDFTLTISSLQPEDFATYYCQQHYSNPFTFGGGTKVEIKR
B5: BGA1831 (antibody, human IgG1, kappa, V domains shown)
VH: B4 VH with E10V, K12V, Y33W, V37A, M48I, V68A, M70L, V79A, A110S
VL: B4 VL with D1Q, Q3V, A43S, L73F
notes: also called humanized anti-NKp30 Ab BGA1831

Experiments:
[1] = biological target: T1, NKp30-mIgG2a (human; mouse, UniProt O14931 19-135); assay: flow cytometry blocking assay; binding of NKp30-mIgG2a to B7-H6 on HCT116/B7-H6 cells in the presence of serially diluted antibody
T1 construct: also called soluble NKp30; NKp30-mIgG2a fusion protein; not shown: Fc domain of mouse IgG2a, fused to the C-terminus of the NKp30 ECD
T1 sequence: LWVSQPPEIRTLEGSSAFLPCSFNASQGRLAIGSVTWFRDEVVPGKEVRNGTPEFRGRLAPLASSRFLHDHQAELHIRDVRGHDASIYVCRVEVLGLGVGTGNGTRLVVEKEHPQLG
Description: A schematic diagram showing the inhibition of NKp30/B7-H6 interactions by anti-NKp30 Ab. The binding of soluble NKp30 (NKp30-mIgG2a fusion protein) to B7-H6-expressing HCT116 cells (HCT116/B7-H6) was determined by flow cytometry. The blockade of NKp30/B7-H6 interaction was quantitatively measured by adding serially diluted BGA1833/IgG1. Results are shown in mean±SD of duplicates.
(Joyce et al., 2011 PNAS 108:6223-6228). […] In addition, these two residues were previously determined to be important for NKp30/B7-H6 interaction in a structural study (Li et al., J Exp Med. 2011 208:703-714). […] For this assay, a B7-H6 stably transduced cell line HCT116/B7-H6 was incubated with NKp30-mIgG2a in the presence of serially diluted BGA1833, followed by detection with […].

[2] = biological target: T2, NKp30 (form in the assay not stated) (UniProt O14931 19-135, limits assumed); assay: flow cytometry, y axis NKp30 (MFI); cells not named in the legend or on the sheet
T2 construct: It is inferred from BGA1831 being an anti-NKp30 antibody
T2 sequence (looked up): T1 sequence

[3] = biological target: T3, his-tagged human NKp30 (human, UniProt O14931 19-135); assay: SPR (BIAcore T-200), antibody captured by anti-mouse IgG, his-tagged human NKp30 as analyte
T3 construct: Analyte of the SPR assay; not shown: his tag
T3 sequence: T1 sequence
Description: The NKp30 antibodies with high binding activities in ELISA and FACS, as well as with potent functional activities in the cell-based assays (described in Example 1 above) were characterized for their binding kinetics by SPR assays using BIAcore™ T-200 (GE Life Sciences). Briefly, an anti-mouse IgG antibody was immobilized on an activated CM5 biosensor chip (Cat. No.: BR100530, GE Life Sciences). Purified NKp30 murine antibodies were flowed over the chip surface and captured by the anti-mouse IgG antibody. Then a serial dilution (0.098 nM to 25 nM) of his-tagged human NKp30 was flowed over the chip surface and changes in surface plasmon resonance signals were analyzed to calculate the association rates (kₒₙ) and dissociation rates (koff) by using the one-to-one Langmuir binding model (BIA Evaluation Software, GE Life Sciences). The equilibrium dissociation constant (KD) was calculated as the ratio koff/kₒₙ.

[4] = biological target: T4, full-length human NKp30 on NK92MI cells (human, UniProt O14931 19-201); assay: flow cytometry on live NK92MI cells over-expressing human NKp30, goat anti-human IgG detection
T4 construct: Full-length human NKp30 over-expressed on NK92MI cells; also called huNKp30; native NKp30
T4 sequence: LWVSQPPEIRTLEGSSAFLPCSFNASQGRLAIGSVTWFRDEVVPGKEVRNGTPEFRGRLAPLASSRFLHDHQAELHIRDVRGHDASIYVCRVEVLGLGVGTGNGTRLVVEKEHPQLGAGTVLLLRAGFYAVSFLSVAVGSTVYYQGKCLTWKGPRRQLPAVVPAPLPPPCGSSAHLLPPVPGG
Description: To evaluate the binding activity of anti-NKp30 antibodies to native NKp30 on living cells, NK92MI cells were transfected to over-express human NKp30. Live NK92mi/NKp30 expressing cells were seeded in 96-well plates and were incubated with a serial dilution of anti-NKp30 antibodies. Goat anti-Human IgG was used as secondary antibody to detect antibody binding to the cell surface. EC₅₀ values for dose-dependent binding to human native NKp30 were determined by fitting the dose-response data to the four-parameter logistic model with GraphPad Prism™.

[5] = biological target: T3, his-tagged human NKp30; assay: SPR, antibody captured on anti-human Fc surface; NKp30 analyte not named in Example 4
Description: Further engineered versions of humanized monoclonal antibodies were derived from the mutation process described as above and characterized in detail. […] For affinity determination, antibodies were captured by anti-human Fc surface, and used in the affinity assay based on surface plasmon resonance (SPR) technology. All the humanization antibodies shown above were also confirmed for functional activities on primary human immune cells isolated from healthy donors (described in Example 7 below).

IC50 [1] [µg/mL] | EC50 [2] [µg/mL] | Kd [3] [pM] | koff [3] [s⁻¹] | kon [3] [M⁻¹ s⁻¹] | EC50 [4] [pM] | Kd [5] [pM] | koff [5] [s⁻¹] | kon [5] [M⁻¹ s⁻¹] | Binder
0.144 |  |  |  |  |  |  |  |  | B1
0.169 | 0.263 | 132 | 0.00021 | 1.59e+06 |  |  |  |  | B2
 |  |  |  |  | 1550 | 143 | 0.000318 | 2.22e+06 | B3
 |  |  |  |  |  | 213 | 0.000331 | 1.55e+06 | B4
 |  |  |  |  | 1260 | 198 | 0.000377 | 1.91e+06 | B5
